# In US20090060916A1 (published 2009):
# “And” between values parts separate entries of the source, which are not always exact repeats. Identical values can stand only once.
# T1: human IL-4 (human, UniProt P05112 25-153, biotinylated in the receptor binding assay and on the Biacore chip)
# T1 construct: also called interleukin-4; biotinylated IL-4
# T1 sequence (looked up): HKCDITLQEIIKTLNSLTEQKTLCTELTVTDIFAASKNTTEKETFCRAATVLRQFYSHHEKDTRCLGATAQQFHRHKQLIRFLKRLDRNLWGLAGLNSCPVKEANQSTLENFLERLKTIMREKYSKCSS
# Experiments:
# human IL-13 [1] = target: T2, human IL-13 (human, UniProt P35225 35-146, biotinylated on the Biacore chip); assay: IL-13 Biacore
# T2 construct: also called hIL-13; recombinant human IL-13
# human IL-4 [2] = target: T1, human IL-4; assay: DOM9 RBA (IL-4 RBA)
# Description: (§1) The wells were washed three times with 0.1% (v/v) Tween 20 in PBS, followed by three washes with PBS, before blocking with 2% (w/v) BSA in PBS. […] The reaction was stopped by the addition of HCl and the absorbance read at 450 nm.
# human IL-13 [3] = target: T2, human IL-13; assay: IL-13 sandwich ELISA, competition with coating antibody
# Procedure: A MAXISORP™ plate (high protein binding ELISA plate, Nunc, Denmark) was coated overnight with 2.5 μg/ml coating antibody (Module Set, Bender MedSystems, Vienna, Austria), then washed once with 0.05% (v/v) Tween 20 in PBS before blocking with 0.5% (w/v) BSA 0.05% (v/v) Tween 20 in PBS. […] The plate was then incubated with TMB substrate (KPL, Gaithersburg, USA), and the reaction was stopped by the addition of HCl and the absorbance read at 450 nm.
# human IL-13 [4] = target: T2, human IL-13; assay: assay not named ('Potency IC50')
# human IL-13 [5] = target: T2, human IL-13; assay: Biacore SPR, IL-13 surface, before and after DOM10-53-386
# Procedure: Analytes were passed over the antigen-coated flow-cell, with in-line referencing against a blank flow-cell, at a flow rate of 30 μl/min in HBS-EP running buffer (Biacore).
# human IL-4 [6] = target: T1, human IL-4; assay: IL-4 RBA: ELISA, IL-4R/Fc coated, biotinylated IL-4
# Description: as §1
# T2 sequence (P35225 35-146 limits assumed): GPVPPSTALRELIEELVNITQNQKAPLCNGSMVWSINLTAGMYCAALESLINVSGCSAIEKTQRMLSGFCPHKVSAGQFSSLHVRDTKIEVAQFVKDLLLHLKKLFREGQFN
Binder,binding result (human IL-13 [1]),binding result (human IL-13 [5]),other results
"DOM10-224-TVAAPS-DOM9-155-78 (bispecific antibody, in-line fusion, from pDOM5) DIQMTQSPSSLSASVGDRVTITCRASPNIAVDLAWYQQKPGKAPKLLIRGVSRLQSGVPSRFSGSGSGTDFTLTISSLQPEDFATYYCRQGAMGSYTFGQGTKVEIKRTVAAPSDIQMTQSPSSLSASVGDRVTITCRASRHIGDWLHWYQQKPGKAPKLLIAWASTLDSGVPSRFSGSGSGTDFTLTISSLQPEDFATYYCLQEGWGPPTFGQGTKVEIKR",binds,–,IC50 (human IL-4 [2]): 12.5 nM
"DOM9-112-210-ASTKGPS-DOM10-208 (bispecific antibody, in-line fusion, from pDOM5) EVQLLESGGGLVQPGGSLRLSCAASGFTFRNFGMGWVRQAPGKGLEWVSWIISSGTETYYADSVKGRFTISRDNSKNTLYLQMNSLRAEDTAVYYCAKSLGRFDYWGQGTLVTVSSASTKGPSDIQMTQSPSSLSASVGDRVTITCRASSPITDGLAWYQQKPGKAPKLLIDTGSRLQSGVPSRFSGSGSGTDFTLTISSLQPEDFATYYCRQGAMGSYTFGQGTKVEIKR",binds,–,IC50 (human IL-4 [2]): 2.48 nM
"DOM10-53-396 (other, VH dAb) VH: GVQLLESGGGLVQPGGSLRLSCAASGFIFAWYDMGWARQAPGKGLEWVSSIGWHGNVTYYADSVKGRFTISRDNSKNTLYLQMNSLRAEDTAVYYCATAEDEPGYDYWGQGTLVTVSS",–,–,IC50 (human IL-13 [3]): 0.055 nM and 0.03 nM
"DOM10-53-475 (other, VH dAb) VH: GVQLLESGGGLVQPGGSLRLSCAASGFTFAWYDMGWVRQAPGKGLEWVSSIDWHGKITYYADSVKGRFTISRDNSKNTLYLQMNSLRAEDTAVYYCATAEDEPGYDYWGQGTLVTVSS",–,–,IC50 (human IL-13 [4]): 0.046 nM
"DOM10-53-472 (other, VH dAb) VH: GVQLLESGGGLVQPGGSLRLSCAASGFIFAWYDMKWVRQAPGKGLEWVSSIDWHGKITYYADSVKGRFTISRDNSKNTLYLQMNSLRAEDTAVYYCATAEDEPGYDYWGQGTLVTVSS",–,–,IC50 (human IL-13 [4]): 0.054 nM
"DOM10-53-531 (other, VH dAb) VH: GVQLLESGGGLVQPGGSLRLSCAASGFTFAWYDMGWVRQAPGKGLEWVSSIDWKGGKTYYADSVKGRFTISRDNSKNTLYLQMNSLRAEDTAVYYCATAEDEPGYDYWGQGTLVTVSS",–,–,IC50 (human IL-13 [4]): 0.34 nM
"DOM10-53-612 (other, VH dAb) VH: GVQLLESGGGLVQPGGSLRLSCAASGFAFAAYDMGWVRQAPGKGLEWVSSIDWKGMETYYADSVKGRFTISRDNSKNTLYLQMNSLRAEDTAVYYCATAEDEPGYDYWGQGTLVTVSS",–,–,IC50 (human IL-13 [4]): 20 nM
"DOM10-53-434 (other, VH dAb) VH: GVQLLESGGGLVQPGGSLRLSCAASGFIFAWYDMGWVRQAPGKGLEWVSSIDWKGGKTYYADSVKGRFTISRDNSKNTLYLQMNSLRAEDTAVYYCATAEDEPGYDYWGQGTLVTVSS",–,–,IC50 (human IL-13 [4]): 0.29 nM
"DOM10-236 (other, VH dAb) VH: EVQLLESGGGLVQPGGSLRLSCAASGFTFPKYDMMWVRQAPGKGLEWVSSIDHLGVNTYYADSVKGRFTISRDNSKNTLYLQMNSLRAEDTAVYYCAKESDWPSFDYWGQGTLVTVSS",–,binds,–
"DOM9-112-210-ASTKGPS-DOM10-236 (bispecific antibody, in-line fusion, from pDOM5) EVQLLESGGGLVQPGGSLRLSCAASGFTFRNFGMGWVRQAPGKGLEWVSWIISSGTETYYADSVKGRFTISRDNSKNTLYLQMNSLRAEDTAVYYCAKSLGRFDYWGQGTLVTVSSASTKGPSEVQLLESGGGLVQPGGSLRLSCAASGFTFPKYDMMWVRQAPGKGLEWVSSIDHLGVNTYYADSVKGRFTISRDNSKNTLYLQMNSLRAEDTAVYYCAKESDWPSFDYWGQGTLVTVSS",binds,–,–
"DOM10-276-ASTKGPS-DOM9-155-78 (bispecific antibody, in-line fusion, from pDOM5) EVQLLESGGGLVQPGGSLRLSCAASGFTFRDYEMDWVRQAPGKGLEWVSSIGPSGSETYYADSVKGRFTISRDNSKNTLYLQMNSLRAEDTAVYYCAKAYTSFDYWGQGTLVTVSSASTKGPSDIQMTQSPSSLSASVGDRVTITCRASRHIGDWLHWYQQKPGKAPKLLIAWASTLDSGVPSRFSGSGSGTDFTLTISSLQPEDFATYYCLQEGWGPPTFGQGTKVEIKR",binds,–,IC50 (human IL-4 [2]): 5.02 nM
"DOM10-277 (other, VH dAb) VH: EVQLLESGGGLVQPGGSLRLSCAASGFTFSSYEMDWVRQAPGKGLEWVSTISADGVTTYYADSVKGRFTISRDNSKNTLYLQMNSLRAEDTAVYYCAKAFDAFDYWGQGTLVTVSS",–,binds,–
"DOM9-112-210-ASTKGPS-DOM10-275 (bispecific antibody, in-line fusion, from pDOM5) EVQLLESGGGLVQPGGSLRLSCAASGFTFRNFGMGWVRQAPGKGLEWVSWIISSGTETYYADSVKGRFTISRDNSKNTLYLQMNSLRAEDTAVYYCAKSLGRFDYWGQGTLVTVSSASTKGPSEVQLLESGGGLVQPGGSLRLSCAASGFTFDREEMDWVRQAPGKGLEWVSTISPSGRKTYYADSVKGRFTISRDNSKNTLYLQMNSLRAEDTAVYYCAKHGTGFDYWGQGTLVTVSS",binds,–,IC50 (human IL-4 [2]): 10.9 nM
"DOM9-112-210-ASTKGPS-DOM10-276 (bispecific antibody, in-line fusion, from pDOM5) EVQLLESGGGLVQPGGSLRLSCAASGFTFRNFGMGWVRQAPGKGLEWVSWIISSGTETYYADSVKGRFTISRDNSKNTLYLQMNSLRAEDTAVYYCAKSLGRFDYWGQGTLVTVSSASTKGPSEVQLLESGGGLVQPGGSLRLSCAASGFTFRDYEMDWVRQAPGKGLEWVSSIGPSGSETYYADSVKGRFTISRDNSKNTLYLQMNSLRAEDTAVYYCAKAYTSFDYWGQGTLVTVSS",binds,–,IC50 (human IL-4 [2]): 10.2 nM
"DOM10-215 (other, Vk dAb) VL: DIQMTQSPSSLSASVGDRVTITCRASQNIFADLNWYQQKPGKAPKLLIYMGSRLQSGVPSRFSGSGSGTDFTLTISSLQPEDFATYYCQQDYKFPLTFGQGTKVEIKR",–,binds,–
"DOM9-112-210-DOM10-53-546 (bispecific antibody, in-line fusion, from pDOM5) EVQLLESGGGLVQPGGSLRLSCAASGFTFRNFGMGWVRQAPGKGLEWVSWIISSGTETYYADSVKGRFTISRDNSKNTLYLQMNSLRAEDTAVYYCAKSLGRFDYWGQGTLVTVSSASTKGPSGVQLLESGGGLVQPGGSLRLSCAASGFVFPWYDMGWVRQAPGKGLEWVSSIDWKGGKTYYADSVKGRFTISRDNSKNTLYLQMNSLRAEDTAVYYCATAEDEPGYDYWGQGTLVTVSS",–,–,EC50 (human IL-13 [3]): 1 nM; IC50 (human IL-4 [6]): 4.3 nM and 6 nM
"DOM10-213 (other, Vk dAb) VL: DIQMTQSPSSLSASVGDRVTITCRASQAIPWGLNWYQQKPGKAPKLLIYDVSSLQSGVPSRFSGSGSGTDFTLTISSLQPEDFATYYCQQDIHIPMTFGQGTKVEIKR",–,binds,–
"DOM9-112-210-ASTKGPS-DOM10-215 (bispecific antibody, in-line fusion, from pDOM5) EVQLLESGGGLVQPGGSLRLSCAASGFTFRNFGMGWVRQAPGKGLEWVSWIISSGTETYYADSVKGRFTISRDNSKNTLYLQMNSLRAEDTAVYYCAKSLGRFDYWGQGTLVTVSSASTKGPSDIQMTQSPSSLSASVGDRVTITCRASQNIFADLNWYQQKPGKAPKLLIYMGSRLQSGVPSRFSGSGSGTDFTLTISSLQPEDFATYYCQQDYKFPLTFGQGTKVEIKR",binds,–,IC50 (human IL-4 [2]): 14.2 nM
"DOM10-212 (other, Vk dAb) VL: DIQMTQSPSSLSASVGDRVTITCRASSVILNELHWYQQKPGKAPKLLISAVSRLQSGVPSRFSGSGSGTDFTLTISSLQPEDFATYYCLQTFWGPFTFGQGTKVEIKR",–,binds,–
"DOM10-270 (other, Vk dAb) VL: DIQMTQSPSSLSASVGDRVTITCRASSVILNELHWYQQKPGKAPKLLISAVSRLQSGVPSRFSGSGSGTDFTLTISSLQPEDFATYYCLQTFWGPYTFGQGTKVEIKR",–,binds,–
"DOM10-212-TVAAPS-DOM9-155-78 (bispecific antibody, in-line fusion, from pDOM5) DIQMTQSPSSLSASVGDRVTITCRASSVILNELHWYQQKPGKAPKLLISAVSRLQSGVPSRFSGSGSGTDFTLTISSLQPEDFATYYCLQTFWGPFTFGQGTKVEIKRTVAAPSDIQMTQSPSSLSASVGDRVTITCRASRHIGDWLHWYQQKPGKAPKLLIAWASTLDSGVPSRFSGSGSGTDFTLTISSLQPEDFATYYCLQEGWGPPTFGQGTKVEIKR",binds,–,–
"DOM10-208 (other, Vk dAb) VL: DIQMTQSPSSLSASVGDRVTITCRASSPITDGLAWYQQKPGKAPKLLIDTGSRLQSGVPSRFSGSGSGTDFTLTISSLQPEDFATYYCRQGAMGSYTFGQGTKVEIKR",–,binds,–
"DOM10-224 (other, Vk dAb) VL: DIQMTQSPSSLSASVGDRVTITCRASPNIAVDLAWYQQKPGKAPKLLIRGVSRLQSGVPSRFSGSGSGTDFTLTISSLQPEDFATYYCRQGAMGSYTFGQGTKVEIKR",–,binds,–
